Measurements: article PMC11844185 (Journal of Translational Medicine, 2025)

Key:
[1] = target: T1, SARS-CoV-2 prototype RBD-His tag protein (Severe acute respiratory syndrome …, UniProt P0DTC2); assay: cell-based or functional assay
[2] = target: T1, SARS-CoV-2 prototype RBD-His tag protein; assay: SPR

B1: SWA9 (antibody, V domains shown)
VH: QMQLVQSGPEVKKPGTSVKVSCKASGFTFTNSAMQWVRQARGQRLEWVGWIVVASGNANSARRFHDRVTITSDMSTSTAYLELSSLRSEDTAVYYCALNHCSNTTCLDGFDIWGQGTMVSVSS
VL: EIVLTQSPVTLSLSPGERATLSCRASQSVRNSLLAWYQQKPGQAPRLLIYAASSRATGIPDRFSGSGSGTDFTLTISRLEPEDFVVYYCQQHGSSPPWTFGQGTKVEFK
[1]
  neutralisation of SARS-CoV-2 prototype pseudovirus, IC50: < 0.1 µg/mL
[2]
  Kd: 0.345 nM

B2: SWC11 (antibody, V domains shown)
VH: EVQLVESGGGLIQPGGSLRLSCAASEFIVSRNYMSWVRQAPGTGLEWVSVIYPGGSTFYADSVKGRFTISRDNSKNTLYLQMDSLRVEDTAVYYCARDYGDFYFDYWGQGTLVTVSS
VL: EIVMTQSPVSLSVSPGERATLSCRASQGVASNLAWYQQKAGQAPRLLIYGASTRATGIPARFSGSGSGTEFTLTISTLQSEDSAVYYCQQYNDRPRTFGQGTKLEIK
[1]
  neutralisation of SARS-CoV-2 prototype pseudovirus, IC50: < 0.1 µg/mL
[2]
  Kd: 0.627 nM

B3: 2YYQH9 (antibody, V domains shown)
VH: EVQLVESGGGLIQPGGSLRLSCAASGVTVIRNYMTWVRQAPGKGLEWVSVIYPGGTTYYADSVKGRFTISRDSSKNTLYLQMNSLRAEDAAVYFCARAYGDYYFDLWGQGTLLTVSS
VL: EMVMTQSPASLSLSPGERATLSCRASQGVDSSYLAWYQQKPGQAPRLLMYGASSRATGIPDRFSGSGYGTDFTLTISRVEPEDFAVYYCQVAFTFGQGTKVEIK
[1]
  neutralisation of SARS-CoV-2 prototype pseudovirus, IC50: < 0.1 µg/mL
[2]
  Kd: 0.428 nM
